Measured values as given in publication PMC3009601, “Structural Basis for Apoptosis Inhibition by Epstein-Barr Virus BHRF1” (PLoS Pathogens, 2010).

Assays:
[1] = biological target: BHRF1ΔC31 (Epstein-Barr virus) (UniProt P03182); assay: ITC; VP-ITC (MicroCal), recombinant BHRF1ΔC31 with BH3 domain peptides; Kd values are the means of 3 experiments ± SD
[2] = biological target: T1, BHRF1 (recombinant; BHRF1ΔC31) (Epstein-barr virus strain ag876, UniProt P0C6Z1); assay: biosensor assay; format: binding
T1 construct: C-terminally truncated (last 31 residues removed, ΔC31), His-tagged, E. coli BL21(DE3) pLysS; the ABT-737 sentence says only 'recombinant BHRF1'

BHRF1ΔC31 [3] = biological target: T2, BHRF1ΔC31 (Epstein-Barr virus, UniProt P03182); assay: ITC; VP-ITC (MicroCal), recombinant BHRF1ΔC31 with BH3 domain peptides; Kd values are the means of 3 experiments ± SD; settings: both partners purified
T2 construct: Epstein-Barr virus BHRF1 (viral Bcl-2 homolog) lacking the C-terminal 31 residues (ΔC31); electron density seen for residues 2-158 in the Bim complex; Cloned into pET DUET with BamHI and EcoRI; also called recombinant C-terminally truncated form of BHRF1; recombinant BHRF1; source: E. coli BL21 DE3 pLysS, purified (nickel Hi-Trap chelating column, Superdex 200 gel filtration)
T2 sequence: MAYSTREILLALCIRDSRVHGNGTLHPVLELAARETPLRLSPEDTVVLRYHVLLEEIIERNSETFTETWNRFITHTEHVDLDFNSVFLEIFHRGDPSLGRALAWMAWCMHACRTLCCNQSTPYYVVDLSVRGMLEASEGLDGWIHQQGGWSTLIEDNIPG

BHRF1ΔC31 [4] = biological target: T3, BHRF1ΔC31 (Epstein-Barr virus, UniProt P03182); assay: ITC
T3 chain: T2 sequence

Molecule | Kd [1] | Kd (BHRF1ΔC31 [3]) | further results
human Puma BH3 26-mer peptide | 70 nM | – | –
CN(C)CC[C@H](CSc1ccccc1)Nc1ccc(S(=O)(=O)NC(=O)c2ccc(N3CCN(Cc4ccccc4-c4ccc(Cl)cc4)CC3)cc2)cc1[N+](=O)[O-] [ABT-737] | – | – | IC50 [2]: > 20000 nM
human Bim BH3 26-mer peptide | 18 nM | – | –
human Bak BH3 26-mer peptide | 150 nM | – | –
PQDASTKKLSECLKRIGDELDSNMELQR [human Bax BH3 28-mer peptide] | – | > 1000 nM | Kd (BHRF1ΔC31 [4]): 1400 nM
SESQEDIIRNIARHLAQVGDSMDRSIPPGLVNGL [human Bid BH3 34-mer peptide] | – | 110 nM | –
